Patent US20240415884A1

Target: T1, CD276 expressed on cells (Du145, PC3, CD276+ 293T, CHO-K1-CD276-Luci cells) (human) (UniProt Q5ZPR3)
T1 sequence (looked up): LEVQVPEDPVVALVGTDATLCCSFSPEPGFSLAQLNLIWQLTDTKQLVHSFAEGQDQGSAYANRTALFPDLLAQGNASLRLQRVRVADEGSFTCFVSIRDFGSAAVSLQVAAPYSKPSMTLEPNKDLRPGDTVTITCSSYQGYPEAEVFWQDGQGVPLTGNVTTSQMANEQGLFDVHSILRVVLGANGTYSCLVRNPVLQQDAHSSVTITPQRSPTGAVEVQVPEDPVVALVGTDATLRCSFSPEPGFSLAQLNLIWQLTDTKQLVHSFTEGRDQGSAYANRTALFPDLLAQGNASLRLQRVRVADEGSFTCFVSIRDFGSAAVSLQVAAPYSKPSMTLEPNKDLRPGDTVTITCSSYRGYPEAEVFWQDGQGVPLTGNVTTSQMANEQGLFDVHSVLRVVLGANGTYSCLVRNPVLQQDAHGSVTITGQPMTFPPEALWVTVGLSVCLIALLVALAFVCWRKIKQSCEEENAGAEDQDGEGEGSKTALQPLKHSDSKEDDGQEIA

- EC50 (read off the curve), percent lysis: 8 nM
B1: BiTE #5 (bispecific antibody, part only; not given: anti-CD3 scFv, part only)
chain, part: EVQLVESGGGLVQPGGSLRLSCAASPFPFTIYEMSWVRQASGKALEWIGYINHSGSTNYNPSLKSRVTISRDNSKNTLYLQMNSLRAEDTAMYYCAILAPDYWGQGTLVTVSSGGGGSGGGGSGGGGS
